Reference: paper PMC9614494

Target: recombinant 6xHis-GBP (Arabidopsis thaliana) (UniProt Q9LU39)
Test: MST; 6xHis-GBP labelled with RED-NHS 2nd generation as target, with or without GluTR, ligand in 1:1 dilutions from 5 nM to 110 µM; Monolith NT.115, 30°C, 40% LED power, PBS

Chain of recombinant 6xHis-GBP (Arabidopsis thaliana) (Q9LU39 43-317): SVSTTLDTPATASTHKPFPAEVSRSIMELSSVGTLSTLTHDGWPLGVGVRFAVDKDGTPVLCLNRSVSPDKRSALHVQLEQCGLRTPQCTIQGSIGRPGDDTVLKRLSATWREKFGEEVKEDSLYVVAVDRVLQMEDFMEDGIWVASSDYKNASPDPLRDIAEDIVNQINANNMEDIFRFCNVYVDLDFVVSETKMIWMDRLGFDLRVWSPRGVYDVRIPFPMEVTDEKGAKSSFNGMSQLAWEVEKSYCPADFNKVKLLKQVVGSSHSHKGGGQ

Kd: 42 nM
Substance: recombinant 6xHis-GluTR (from UniProt P42804 62-543) (enzyme)
